# Assay results as given in article PMC11997652, “Transcription factors MdEIL1 and MdHY5 integrate ethylene and light signaling to promote chlorophyll degradation in mature apple peels”.
# T1: MdHY5 (apple, UniProt L0MZN5 1-164)
# T1 sequence: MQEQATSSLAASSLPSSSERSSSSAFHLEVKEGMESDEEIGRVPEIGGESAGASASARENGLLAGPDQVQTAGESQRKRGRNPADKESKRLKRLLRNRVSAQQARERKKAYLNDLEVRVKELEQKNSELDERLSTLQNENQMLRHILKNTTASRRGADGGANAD
# T2: MdEIL1 (labelled MdEIN3-HIS in the Fig. 7d figure text);MdHY5 (apple;apple, UniProt D5L144;L0MZN5 1-659;1-164, |)
# T2 sequence 1: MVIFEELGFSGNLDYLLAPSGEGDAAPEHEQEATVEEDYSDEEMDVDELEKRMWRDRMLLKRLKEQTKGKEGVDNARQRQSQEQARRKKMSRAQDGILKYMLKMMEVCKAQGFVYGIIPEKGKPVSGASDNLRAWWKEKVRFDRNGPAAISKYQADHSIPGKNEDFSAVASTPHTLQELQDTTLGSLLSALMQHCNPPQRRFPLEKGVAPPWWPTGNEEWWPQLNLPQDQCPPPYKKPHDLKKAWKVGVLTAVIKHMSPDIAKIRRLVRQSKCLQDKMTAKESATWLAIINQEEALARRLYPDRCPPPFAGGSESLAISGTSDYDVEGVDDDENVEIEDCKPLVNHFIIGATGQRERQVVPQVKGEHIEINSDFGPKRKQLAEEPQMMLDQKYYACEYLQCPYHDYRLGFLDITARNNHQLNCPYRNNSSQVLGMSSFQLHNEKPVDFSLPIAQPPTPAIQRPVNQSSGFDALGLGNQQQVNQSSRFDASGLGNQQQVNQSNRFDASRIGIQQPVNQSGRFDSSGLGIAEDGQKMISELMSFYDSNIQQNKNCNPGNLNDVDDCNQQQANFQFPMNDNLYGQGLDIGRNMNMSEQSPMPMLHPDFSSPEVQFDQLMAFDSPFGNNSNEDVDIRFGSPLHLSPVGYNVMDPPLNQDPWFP
# T2 sequence 2: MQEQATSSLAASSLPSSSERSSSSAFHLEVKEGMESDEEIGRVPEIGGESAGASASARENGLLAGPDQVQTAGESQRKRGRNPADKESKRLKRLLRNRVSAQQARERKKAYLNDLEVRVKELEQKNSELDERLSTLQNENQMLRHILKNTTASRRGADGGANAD
# T3: MdEIL1 (labelled MdEIN3-HIS in the Fig. 7d figure text) (apple, UniProt D5L144 1-659)
# T3 sequence: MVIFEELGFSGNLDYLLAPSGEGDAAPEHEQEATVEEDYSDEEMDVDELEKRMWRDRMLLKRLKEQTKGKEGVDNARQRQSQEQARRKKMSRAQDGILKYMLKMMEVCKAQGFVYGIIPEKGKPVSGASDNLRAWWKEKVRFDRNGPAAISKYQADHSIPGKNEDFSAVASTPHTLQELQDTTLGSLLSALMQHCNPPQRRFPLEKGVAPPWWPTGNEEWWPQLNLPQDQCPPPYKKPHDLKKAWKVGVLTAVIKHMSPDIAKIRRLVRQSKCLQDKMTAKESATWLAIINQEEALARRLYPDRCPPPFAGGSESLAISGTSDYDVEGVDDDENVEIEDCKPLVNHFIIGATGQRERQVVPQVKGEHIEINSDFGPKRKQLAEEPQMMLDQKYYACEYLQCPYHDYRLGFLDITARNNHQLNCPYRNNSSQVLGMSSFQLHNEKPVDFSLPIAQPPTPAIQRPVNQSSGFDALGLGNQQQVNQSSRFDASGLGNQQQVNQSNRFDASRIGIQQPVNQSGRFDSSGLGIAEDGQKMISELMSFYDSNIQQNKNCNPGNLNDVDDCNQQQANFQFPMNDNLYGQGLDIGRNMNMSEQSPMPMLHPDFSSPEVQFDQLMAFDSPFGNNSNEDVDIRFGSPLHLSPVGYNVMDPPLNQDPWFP
# Columns and labels:
# [1] = target: T1, MdHY5; test: EMSA; LightShift Chemiluminescent EMSA kit (Thermo); buffer, salt, pH and temperature not stated; cold probe 25x, 50x, 100x; conditions: protein: recombinant; tags: His (pET32a fusion); chain copies: 2; label: 3' biotin on both strands; blunt
# [2] = target: T2, MdEIL1 (labelled MdEIN3-HIS in the Fig. …); test: EMSA; MdEIL1 added to MdHY5 enhances binding; LightShift Chemiluminescent EMSA kit (Thermo); buffer, salt, pH and temperature not stated; cold probe 25x, 50x, 100x; conditions: protein: recombinant;recombinant; tags: His (pET32a fusion);His (pET32a fusion); label: 3' biotin on both strands; blunt
# [3] = target: T3, MdEIL1 (labelled MdEIN3-HIS in the Fig. …); test: EMSA; LightShift Chemiluminescent EMSA kit (Thermo); buffer, salt, pH and temperature not stated; cold probe 25x, 50x, 100x; conditions: protein: recombinant; tags: His (pET32a fusion); label: 3' biotin on both strands; blunt
# [4] = target: T2, MdEIL1 (labelled MdEIN3-HIS in the Fig. …); test: EMSA; MdHY5 added to MdEIL1 enhances binding; LightShift Chemiluminescent EMSA kit (Thermo); buffer, salt, pH and temperature not stated; cold probe 25x, 50x, 100x; conditions: protein: recombinant;recombinant; tags: His (pET32a fusion);His (pET32a fusion); label: 3' biotin on both strands; blunt
# [5] = target: T2, MdEIL1 (labelled MdEIN3-HIS in the Fig. …); test: EMSA; MdHY5 with MdEIL1 enhances binding; LightShift Chemiluminescent EMSA kit (Thermo); buffer, salt, pH and temperature not stated; cold probe 25x, 50x, 100x; conditions: protein: recombinant;recombinant; tags: His (pET32a fusion);His (pET32a fusion); label: 3' biotin on both strands; blunt
Binder,binding result [1],binding result [3],also measured
MdERF17-G-box2 hot probe (dsDNA) DNA 1: ATCATATACATATATATATGCACGTTGAAAACTTAGCTCCTTTGTT DNA 2: AACAAAGGAGCTAAGTTTTCAACGTGCATATATATATGTATATGAT,no binding,,
MdERF17-G-box1 hot probe (dsDNA) DNA 1: GTGTGTTTTATTGCATCATTCACGTGTCATCTTTGCAAAAAATTAG DNA 2: CTAATTTTTTGCAAAGATGACACGTGAATGATGCAATAAAACACAC,no binding,,
MdERF17-G-box3 hot probe (dsDNA) DNA 1: CCGTATGAGGACAAATAACACACGTGCTTCGAAACCCGTCTCTCTG DNA 2: CAGAGAGACGGGTTTCGAAGCACGTGTGTTATTTGTCCTCATACGG,binds,,binding result [2]: binds
MdERF17-TACAT3 hot probe (dsDNA) DNA 1: GGTGAGGTTTGGGTTGAATTTACATAATGAGTCACTCATAGTAAA DNA 2: TTTACTATGAGTGACTCATTATGTAAATTCAACCCAAACCTCACC,,binds,binding result [4]: binds
MdHY5-TACAT hot probe (dsDNA) DNA 1: GCTTCCCCGTAACCAAGAAATACATGCATTTTCCGTCCAGCACAC DNA 2: GTGTGCTGGACGGAAAATGCATGTATTTCTTGGTTACGGGGAAGC,,binds,binding result [5]: binds
